Assay results taken from paper PMC10464304, “Refined read‐out: The hUHRF1 Tandem‐Tudor domain prefers binding to histone H3 tails containing K4me1 in the context of H3K9me2/3” (Protein Science : A Publication of the Protein Society, 2023).
Where a chain is given by its changes, count along the chain named. No end group written: not given here. Me3 = trimethyl (trimethyl-lysine)

T1: GST-fused Tandem-Tudor domain (TTD) of human UHRF1, residues 126-280, wild type (human, UniProt Q96T88 126-280)
T1 construct: Tandem Tudor domain (TTD) of human UHRF1, UniProt Q96T88, residues 126-280; borders as in Rothbart et al., 2012; also called hUHRF1-TTD; UHRF1-TTD; source: E. coli, purified (Glutathione Agarose 4B); not shown: GST, N-terminal, kept
T1 sequence (looked up): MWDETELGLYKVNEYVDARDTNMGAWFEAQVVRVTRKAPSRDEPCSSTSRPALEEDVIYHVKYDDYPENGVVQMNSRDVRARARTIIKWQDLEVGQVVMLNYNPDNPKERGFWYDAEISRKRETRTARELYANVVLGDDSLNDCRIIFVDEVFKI

T2: GST-hUHRF1-TTD (126-280) R207Q (human, UniProt Q96T88 126-280, R207Q)
T2 construct: Tandem Tudor domain (TTD) of human UHRF1, UniProt Q96T88, residues 126-280; source: E. coli, purified (Glutathione Agarose 4B); not shown: GST, N-terminal, kept
T2 sequence (looked up): T1 sequence (looked up) with R82Q

T3: GST-hUHRF1-TTD (126-280) R207H (human, UniProt Q96T88 126-280, R207H)
T3 construct: Tandem Tudor domain (TTD) of human UHRF1, UniProt Q96T88, residues 126-280; source: E. coli, purified (Glutathione Agarose 4B); not shown: GST, N-terminal, kept
T3 sequence (looked up): T1 sequence (looked up) with R82H

T4: GST-hUHRF1-TTD (126-280) R207E (human, UniProt Q96T88 126-280, R207E)
T4 construct: Tandem Tudor domain (TTD) of human UHRF1, UniProt Q96T88, residues 126-280; also called TTD R207E; source: E. coli, purified (Glutathione Agarose 4B); not shown: GST, N-terminal, kept
T4 sequence (looked up): T1 sequence (looked up) with R82E

T5: GST-hUHRF1-TTD (126-280) M224A (human, UniProt Q96T88 126-280, M224A)
T5 construct: Tandem Tudor domain (TTD) of human UHRF1, UniProt Q96T88, residues 126-280; source: E. coli, purified (Glutathione Agarose 4B); not shown: GST, N-terminal, kept
T5 sequence (looked up): T1 sequence (looked up) with M99A

T6: GST-hUHRF1-TTD (126-280) F278A (human, UniProt Q96T88 126-280, F278A)
T6 construct: Tandem Tudor domain (TTD) of human UHRF1, UniProt Q96T88, residues 126-280; source: E. coli, purified (Glutathione Agarose 4B); not shown: GST, N-terminal, kept
T6 sequence (looked up): T1 sequence (looked up) with F153A

T7: GST-hUHRF1-TTD (126-280) D142A (human, UniProt Q96T88 126-280, D142A)
T7 construct: Tandem Tudor domain (TTD) of human UHRF1, UniProt Q96T88, residues 126-280; also called TTD D142A mutant; source: E. coli, purified (Glutathione Agarose 4B); not shown: GST, N-terminal, kept
T7 sequence (looked up): T1 sequence (looked up) with D17A

T8: GST-hUHRF1-TTD (126-280) D142E (human, UniProt Q96T88 126-280, D142E)
T8 construct: Tandem Tudor domain (TTD) of human UHRF1, UniProt Q96T88, residues 126-280; source: E. coli, purified (Glutathione Agarose 4B); not shown: GST, N-terminal, kept
T8 sequence (looked up): T1 sequence (looked up) with D17E

T9: GST-hUHRF1-TTD (126-280) D142N (human, UniProt Q96T88 126-280, D142N)
T9 construct: Tandem Tudor domain (TTD) of human UHRF1, UniProt Q96T88, residues 126-280; source: E. coli, purified (Glutathione Agarose 4B); not shown: GST, N-terminal, kept
T9 sequence (looked up): T1 sequence (looked up) with D17N

T10: GST-hUHRF1-TTD (126-280) E153A (human, UniProt Q96T88 126-280, E153A)
T10 construct: Tandem Tudor domain (TTD) of human UHRF1, UniProt Q96T88, residues 126-280; also called E153A TTD mutant; source: E. coli, purified (Glutathione Agarose 4B); not shown: GST, N-terminal, kept
T10 sequence (looked up): T1 sequence (looked up) with E28A

T11: GST-hUHRF1-TTD (126-280) E153D (human, UniProt Q96T88 126-280, E153D)
T11 construct: Tandem Tudor domain (TTD) of human UHRF1, UniProt Q96T88, residues 126-280; also called TTD E153D; source: E. coli, purified (Glutathione Agarose 4B); not shown: GST, N-terminal, kept
T11 sequence (looked up): T1 sequence (looked up) with E28D

T12: GST-hUHRF1-TTD (126-280) E153Q (human, UniProt Q96T88 126-280, E153Q)
T12 construct: Tandem Tudor domain (TTD) of human UHRF1, UniProt Q96T88, residues 126-280; source: E. coli, purified (Glutathione Agarose 4B); not shown: GST, N-terminal, kept
T12 sequence (looked up): T1 sequence (looked up) with E28Q

T13: GST-hUHRF1-TTD (126-280) R207A (human, UniProt Q96T88 126-280, R207A)
T13 construct: Tandem Tudor domain (TTD) of human UHRF1, UniProt Q96T88, residues 126-280; source: E. coli, purified (Glutathione Agarose 4B); not shown: GST, N-terminal, kept
T13 sequence (looked up): T1 sequence (looked up) with R82A

T14: GST-hUHRF1-TTD (126-280) R207L (human, UniProt Q96T88 126-280, R207L)
T14 construct: Tandem Tudor domain (TTD) of human UHRF1, UniProt Q96T88, residues 126-280; source: E. coli, purified (Glutathione Agarose 4B); not shown: GST, N-terminal, kept
T14 sequence (looked up): T1 sequence (looked up) with R82L

B1: FITC-labeled H3(1-19) peptide with K4me1 and K9me3 (peptide, UniProt P68431 2-20, looked up)
peptide: ARTK(Me)QTARK(Me3)STGGKAPRKQ
modifications: also: FITC-labeled (position not given here)
notes: histone H3 N-terminal tail, residues 1-19; also called H3K4me1-K9me3; H3 K4me1-K9me3
B2: FITC-labeled H3(1-19) peptide with K9me3 (peptide, UniProt P68431 2-20, looked up)
peptide: ARTKQTARKSTGGKAPRKQ
modifications: K9me3 (trimethyl-lysine at 9); FITC-labeled
notes: histone H3 N-terminal tail, residues 1-19; also called H3K9me3; H3 K9me3

Tests used:
Test in all cases: fluorescence polarisation; fluorescence anisotropy titration; 100 nM FITC-labeled peptide in the cuvette, protein added stepwise; 23°C; 100 mM KCl, 20 mM HEPES pH 7.5, 10% v/v glycerol
Conditions in all cases: both partners purified
[1] = molecular target: T1, GST-fused Tandem-Tudor domain (TTD) of …
[2] = molecular target: T2, GST-hUHRF1-TTD (126-280) R207Q
[3] = molecular target: T3, GST-hUHRF1-TTD (126-280) R207H
[4] = molecular target: T4, GST-hUHRF1-TTD (126-280) R207E
[5] = molecular target: T5, GST-hUHRF1-TTD (126-280) M224A
[6] = molecular target: T6, GST-hUHRF1-TTD (126-280) F278A
[7] = molecular target: T7, GST-hUHRF1-TTD (126-280) D142A
[8] = molecular target: T8, GST-hUHRF1-TTD (126-280) D142E
[9] = molecular target: T9, GST-hUHRF1-TTD (126-280) D142N
[10] = molecular target: T10, GST-hUHRF1-TTD (126-280) E153A
[11] = molecular target: T11, GST-hUHRF1-TTD (126-280) E153D
[12] = molecular target: T12, GST-hUHRF1-TTD (126-280) E153Q
[13] = molecular target: T13, GST-hUHRF1-TTD (126-280) R207A
[14] = molecular target: T14, GST-hUHRF1-TTD (126-280) R207L

| Binder | Kd [1] [nM] | Kd [2] [nM] | Kd [3] [nM] | Kd [4] [nM] | Kd [5] [nM] | Kd [6] [nM] | Kd [7] [nM] | Kd [8] [nM] | Kd [9] [nM] | Kd [10] [nM] | Kd [11] [nM] | Kd [12] [nM] | Kd [13] [nM] | Kd [14] [nM] |
| --- | --- | --- | --- | --- | --- | --- | --- | --- | --- | --- | --- | --- | --- | --- |
| B1 | 240 | 390 | 460 | 270 | 430 | 3900 | 2700 | 580 | 2 | 2 | 50 | 250 | 370 | 440 |
| B2 | – | – | – | – | – | – | – | – | – | – | – | – | 900 | 900 |
